Measured values as given in patent CN106467574A (UNIV FUDAN, dated 2017).

Key:
[1] = molecular target: 人源TF, 细胞表面TF (human tissue factor on the surface of human tumour cells) (human, UniProt P13726 33-295); assay: cell-based or functional assay
[2] = molecular target: T1, 鼠源TF (mouse tissue factor on B16-F10 cells) (mouse, UniProt P20352 29-294); assay: flow cytometry on B16-F10 cells
T1 construct: whole, on cells
T1 sequence (looked up): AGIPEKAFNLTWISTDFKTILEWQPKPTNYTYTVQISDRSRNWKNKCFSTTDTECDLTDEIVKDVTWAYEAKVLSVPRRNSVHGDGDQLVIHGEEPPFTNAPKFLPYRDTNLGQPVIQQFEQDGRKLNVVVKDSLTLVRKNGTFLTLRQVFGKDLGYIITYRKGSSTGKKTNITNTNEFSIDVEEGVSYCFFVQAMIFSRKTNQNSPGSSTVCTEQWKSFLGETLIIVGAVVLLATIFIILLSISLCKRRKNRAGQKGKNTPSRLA

抗FXa生成活性 IC50 (BxPC-3 cells) [1]: 9 nM | 抗FXa生成活性 IC50 (MDA-MB-231 cells) [1]: 6.4 nM | binding result [2]: no binding (tested: 10μg/mL)
B1: TF-mAb-SC1 (antibody, IgG2b, V domains shown)
VH: QVQLQQPGAELVRPGASVKLSCKASGYSFISYWMNWVKQRPGQGLEWIGMIYPADSETRLNQKFKDKATLTVDKSSSTAYMQLSSPTSEDSAVYYCAREDYGSSDYWGQGTTLTVSS
VL: EILLTQSPAIIAASPGEKVTITCSASSSVSYMNWYLQKPGSSPKIWIYGISNLASGVPARFSGSGSGTSFSFTINSMETEDVATYYCQQKSSFPWTFGGGTKLEIK
notes: Mouse monoclonal antibody from a hybridoma, purified from ascites
